Assays:
murine IL-11 [1] = molecular target: T1, murine IL-11 (mouse, UniProt P47873 22-199); experiment: cell-based or functional assay
T1 sequence: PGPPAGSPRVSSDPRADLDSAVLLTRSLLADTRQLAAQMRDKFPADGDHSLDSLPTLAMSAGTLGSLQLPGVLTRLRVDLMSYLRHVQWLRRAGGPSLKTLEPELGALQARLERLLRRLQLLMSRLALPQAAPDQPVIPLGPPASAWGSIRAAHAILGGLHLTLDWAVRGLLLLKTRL

human IL-11 [2] = molecular target: T2, human IL-11 (human, UniProt P20809 22-199); experiment: cell-based or functional assay
T2 sequence: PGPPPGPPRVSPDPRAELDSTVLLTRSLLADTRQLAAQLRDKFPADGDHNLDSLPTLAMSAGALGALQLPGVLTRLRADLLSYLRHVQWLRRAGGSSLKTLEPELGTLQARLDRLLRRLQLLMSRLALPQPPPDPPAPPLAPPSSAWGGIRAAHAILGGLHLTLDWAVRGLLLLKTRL

human IL-11 [3] = molecular target: T2, human IL-11; experiment: Tri-complex ELISA, hIL-11 + mIL-11Ra-Fc + hgp130-Fc, inhibition of complex formation
Method: (§1) In the Tri-complex ELISA format IL-11 antibodies are tested for their ability to inhibit the formation of a complex consisting of murine or human gp130-Fc fusion protein, with murine or human IL-11, and a murine IL11RA-Fc fusion protein. The assay format was adapted according to FIG. 18 (a, b), depending on whether murine or human IL-11 IgG antibodies were tested.
(§2) Bispecific antibodies were subjected to the experimental assay procedure described in Example 19 and IC50 [M], respectively efficacy (%) were calculated accordingly.

murine IL-11 [4] = molecular target: T1, murine IL-11; experiment: Tri-complex ELISA, mIL-11 + mIL-11Ra-Fc + mgp130-Fc, inhibition of complex formation
Method: as §1, §2

[5] = molecular target: T3, human IL-11 (Invigate, e.g., lot #C121021-19) (human, UniProt P20809 22-199); experiment: Tri-complex ELISA: antibody titrated against 8 nM human IL-11, 2 nM human gp130-human-Fc and 2 nM murine IL11RA-murine-Fc
T3 construct: Bought protein; also called hIL-11; hIL11
T3 sequence: T2 sequence
Method: as §1
(§3) The assay was performed using High Binding microtiter plates (Greiner, #781077). In a first step, 25 μl of goat anti human IgG (Sigma, #12136), diluted 1:1000 in coating buffer (Candor, #121125) was coated on the plate at 4° C. overnight. Next day, the plate was washed one time with 50 μl PBST and then blocked with 50 μl SmartBlock (Candor, #113125) for one hour at room temperature (RT). […] After three additional washes of the coated and blocked microtiter plate with PBS-T, 25 μl of each mixture were added and the assay plate was incubated for one hour at room temperature. After three additional washes, anti-mouse-gp130 biotinylated antibody (R&D, #BAF468) or anti-human gp130 biotinylated antibody (R&D, #BAF228), both 1:1000 in 10% SmartBlock PBS-T, was added and incubated for 1 hour at RT. After three additional washes, a Streptavidin-Peroxidase conjugate (Sigma, #S5512) 1:1000 in SmartBlock PBS-T was added and incubated for one hour at room temperature. After a final three washes, AmplexRed (Fisher Scientific, A12222), 1/1000 in PBS, 0,003% H₂O₂, was added as substrate and incubated for 15 min at RT in the dark. Then, the fluorescence was measured with a plate reader at 535/595 nm. Signals from dose responses were used to calculate IC50 values using GraphPad Prism software.

[6] = molecular target: T4, murine IL-11 (Invigate, e.g., lot #C210819-09) (mouse, UniProt P47873 22-199); experiment: Tri-complex ELISA: antibody titrated against 8 nM murine IL-11, 2 nM murine gp130-human-Fc and 2 nM murine IL11RA-murine-Fc
T4 construct: Bought protein; biotinylated where captured on streptavidin plates; also called mIL-11; mIL11
T4 sequence: T1 sequence
Method: as §1, §3

[7] = molecular target: T5, human IL2Ra (Peprotech, Germany, #200-02RC) (human, UniProt P01589 22-240); experiment: direct binding ELISA on coated IL2Ra
T5 construct: Coated on the ELISA plate; also called hIL2Ra; IL-2 receptor alpha
T5 sequence (looked up): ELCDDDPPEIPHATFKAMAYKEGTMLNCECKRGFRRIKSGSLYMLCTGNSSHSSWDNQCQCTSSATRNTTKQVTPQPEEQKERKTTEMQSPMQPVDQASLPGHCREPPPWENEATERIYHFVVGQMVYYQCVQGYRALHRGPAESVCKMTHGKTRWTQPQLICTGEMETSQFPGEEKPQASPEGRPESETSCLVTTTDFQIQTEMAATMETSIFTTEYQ

[8] = molecular target: T4, murine IL-11 (Invigate, e.g., lot …); experiment: SPR, Biacore T200, 25 C; antibody captured via anti-mouse Fc, IL-11 as analyte, 1:1 Langmuir fit
Method: (§4) Antibodies were captured via anti-mouse Fc IgGs (“Mouse antibody capture kit, Order No. BR100383, Cytiva) covalently amine coupled to a Series S CM5 sensor chip (Cytiva). The amine coupling was carried out according to the manufacturer's instructions using 1-ethyl-3-(3-dimethylaminopropyl) carbodiimide hydrochloride (EDC), N-hydroxysuccinimide (NHS) and ethanolamine HCl, pH 8.5 (“Amine Coupling Kit” BR-1000-50, Cytiva.). Human IL-11 (Invigate, e.g., lot #C121021-19), and murine IL-11 (Invigate, e.g., lot #C210819-09) were used as analytes. […] Based on that experiment an IL-11 concentration range was chosen to optimally determine kinetics and affinity of anti-IL-11 antibodies in multicycle kinetics mode. The sensor surface was regenerated with glycine pH 1.7 after each antigen injection. Obtained sensorgrams were double referenced (subtraction of reference flow cell signal and buffer injection) and were fitted to a 1:1 Langmuir binding model to derive kinetic data using the Biacore T200 Evaluation software or the Biacore Insight software.

[9] = molecular target: T3, human IL-11 (Invigate, e.g., lot …); experiment: as above
Method: as §4

B1: TPP-18068 (antibody, mouse IgG1)
heavy: EVQLLESGGGLVQPGGSLRLSCAASGFTFSSYGMHWVRQAPGKGLEWVSVISYDGSYKYYADSVKGRFTISRDNSKNTLYLQMNSLRAEDTAVYYCAAGVPDYWGQGTLVTVSSAKTTPPSVYPLAPGSAAQTNSMVTLGCLVKGYFPEPVTVTWNSGSLSSGVHTFPAVLQSDLYTLSSSVTVPSSTWPSETVTCNVAHPASSTKVDKKIVPRDCGCKPCICTVPEVSSVFIFPPKPKDVLTITLTPKVTCVVVDISKDDPEVQFSWFVDDVEVHTAQTQPREEQFNSTFRSVSELPIMHQDWLNGKEFKCRVNSAAFPAPIEKTISKTKGRPKAPQVYTIPPPKEQMAKDKVSLTCMITDFFPEDITVEWQWNGQPAENYKNTQPIMDTDGSYFVYSKLNVQKSNWEAGNTFTCSVLHEGLHNHHTEKSLSHSPGK
light: QSVLTQPPSASGTPGQRVTISCTGSSSNIGAGYDVHWYQQLPGTAPKLLIYSNNERPSGVPDRFSGSKSGTSASLAISGLRSEDEADYYCAAWDDSLNGPVFGGGTKLTVLGQPKSSPSVTLFPPSSEELETNKATLVCTITDFYPGVVTVDWKVDGTPVTQGMETTQPSKQSNNKYMASSYLTLTARAWERHSSYSCQVTHEGHTVEKSLSRADCS
notes: mIgG1, Lambda
Efficacy (%), Stat3 reporter gene assay (murine IL-11 [1]): 84.1%
IC50, Stat3 reporter gene assay (murine IL-11 [1]): 2.7 nM
Efficacy (%), Stat3 reporter gene assay (human IL-11 [2]): 20.7%
IC50, Stat3 reporter gene assay (human IL-11 [2]): 4.8 nM

B2: TPP-29603 (bispecific antibody, IgG1)
chain 1: QVQLVESGGGVVQPGRSLRLSCAASGFTFSHYDMHWVRQAPGKGLEWVAVISYHGSVKFYADSVKGRFTISRDNSKNTLYLQMNSLRAEDTAVYYCARTPGFHFDYWGQGTLVTVSSGGGGSGGGGSGGGGSQSVLTQPPSASGTPGQRVTISCSGSSSNIGSNYVSWYQQLPGTAPKLLIYYDDLRPSGVPDRFSGSKSGTSASLAISGLRSEDEADYYCSAWDDSLSGVVFGGGTKLTVLGGGGSGGGGSGGGGSGVECPPCPAPPVAGPSVFIFPPKPKDVLTITLTPKVTCVVVDISKDDPEVQFSWFVDDVEVHTAQTQPREEQFNSTFRSVSELPIMHQDWLNGKEFKCRVNSAAFPAPIEKTISKTKGRPKAPQVYTIPPCKEQMAKDKVSLWCMITDFFPEDITVEWQWNGQPAENYKNTQPIMDTDGSYFVYSKLNVQKSNWEAGNTFTCSVLHEGLHNHHTEKSLSHSPGK
chain 2: EVQLLESGGGLVQPGGSLRLSCAASGFTFSSYGMHWVRQAPGKGLEWVAVISYDGSYKYYADSVKGRFTISRDNSKNTLYLQMNSLRAEDTAVYYCAAGVPDYWGQGTLVTVSSGGGGSGGGGSGGGGSQSVLTQPPSASGTPGQRVTISCSGSSSNIGSDYDVHWYQQLPGTAPKLLIYSNEERPSGVPDRFSGSKSGTSASLAISGLRSEDEADYYCSAWDSSLSGPVFGGGTKLTVLGGGGSGGGGSGGGGSGVECPPCPAPPVAGPSVFIFPPKPKDVLTITLTPKVTCVVVDISKDDPEVQFSWFVDDVEVHTAQTQPREEQFNSTFRSVSELPIMHQDWLNGKEFKCRVNSAAFPAPIEKTISKTKGRPKAPQVCTIPPPKEQMAKDKVSLSCAITDFFPEDITVEWQWNGQPAENYKNTQPIMDTDGSYFVVSKLNVQKSNWEAGNTFTCSVLHEGLHNHHTEKSLSHSPGK
notes: scFv-kih-mIgG1; bispecific comprising CDRs of TPP-29528 and TPP-29519
Efficacy (%) (human IL-11 [3]): 98.5%
IC50 (human IL-11 [3]): 0.696 nM
Efficacy (%) (murine IL-11 [4]): 98.5%
IC50 (murine IL-11 [4]): 0.17 nM

B3: TPP-18087 (antibody, mouse IgG1, V domains shown)
VH: EVQLLESGGGLVQPGGSLRLSCAASGFTFSHYDMNWLRQAPGKGLEWVGVISYDGSNKFYADFVKGRFTISRDNSKNTLYLQMNSLRAEDTAVYYCARTPGSHFDYWGQGTLVTVSS
VL: QSVLTQPPSASGTPGQRVTISCSGSSSNIGNNAVNWYQQLPGTAPKLLIYYDDLLPSGVPDRFSGSKSGTSASLAISGLRSEDEADYYCSAWDDSLNGVVFGGGTKLTVLG
notes: mIgG1, Lambda
Efficacy (%) [5]: 60.4%
IC50 [5]: 55 nM
Efficacy (%) [6]: 5.5%
binding result [7]: no binding (tested: 3.3E-7 [M] antibody)
Kd [8]: 42 nM
Kd [9]: 53 nM

B4: TPP-18087 (antibody, mouse IgG1, V domains shown)
VH: B3 VH
VL: B3 VL
notes: mIgG1, Lambda
Efficacy (%), Stat3 reporter gene assay (murine IL-11 [1]): 49%
IC50, Stat3 reporter gene assay (murine IL-11 [1]): 330 nM
Efficacy (%), Stat3 reporter gene assay (human IL-11 [2]): 51.5%
IC50, Stat3 reporter gene assay (human IL-11 [2]): 110 nM

B5: TPP-29697 (bispecific antibody, IgG1)
chain 1: QVQLVESGGGVVQPGRSLRLSCAASGFTFSHYDMHWVRQAPGKGLEWVAVISYHGSVKFYADSVKGRFTISRDNSKNTLYLQMNSLRAEDTAVYYCARTPGFHFDYWGQGTLVTVSSGGGGSGGGGSGGGGSQSVLTQPPSASGTPGQRVTISCSGSSSNIGSNYVSWYQQLPGTAPKLLIYYDDLRPSGVPDRFSGSKSGTSASLAISGLRSEDEADYYCSAWDDSLSGVVFGGGTKLTVLGGGGSGGGGSGGGGSGVECPPCPAPPVAGPSVFLFPPKPKDTLMISRTPEVTCVVVGVSHEDPEVKFNWYVDGVEVHNAKTKPREEQYNSTYRVVSVLTVLHQDWLNGKEYKCKVSNKQLPSPIEKTISKAKGQPREPQVYTLPPCRDELTKNQVSLWCLVKGFYPSDIAVEWESNGQPENNYKTTPPVLDSDGSFFLYSKLTVDKSRWQQGNVFSCSVMHEALHNHYTQKSLSLSPGK
chain 2: EVQLLESGGGLVQPGGSLRLSCAASGFTFSSYGMHWVRQAPGKGLEWVAVISYDGSYKYYADSVKGRFTISRDNSKNTLYLQMNSLRAEDTAVYYCAAGVPDYWGQGTLVTVSSGGGGSGGGGSGGGGSQSVLTQPPSASGTPGQRVTISCSGSSSNIGSDYDVHWYQQLPGTAPKLLIYSNEERPSGVPDRFSGSKSGTSASLAISGLRSEDEADYYCSAWDSSLSGPVFGGGTKLTVLGGGGSGGGGSGGGGSGVECPPCPAPPVAGPSVFLFPPKPKDTLMISRTPEVTCVVVGVSHEDPEVKFNWYVDGVEVHNAKTKPREEQYNSTYRVVSVLTVLHQDWLNGKEYKCKVSNKQLPSPIEKTISKAKGQPREPQVCTLPPSRDELTKNQVSLSCAVKGFYPSDIAVEWESNGQPENNYKTTPPVLDSDGSFFLVSKLTVDKSRWQQGNVFSCSVMHEALHNHYTQKSLSLSPGK
notes: scFv-kih-hIgG1 with Fc-silencing mutations; bispecific comprising CDRs of TPP-29528 and TPP-29519
Efficacy (%) (human IL-11 [3]): 104%
IC50 (human IL-11 [3]): 1.6 nM
Efficacy (%) (murine IL-11 [4]): 104%
IC50 (murine IL-11 [4]): 0.0622 nM
